These results are taken from patent publication US20240067748A1 (NONA BIOSCIENCES SUZHOU, published 2024).

In experiment [1] the target is T1, monkey Trop2 on CHO-K1 cells (monkey, UniProt A0A2K5UE71 27-323).
T1 construct: also called CHO-K1/monkey Trop2
T1 sequence: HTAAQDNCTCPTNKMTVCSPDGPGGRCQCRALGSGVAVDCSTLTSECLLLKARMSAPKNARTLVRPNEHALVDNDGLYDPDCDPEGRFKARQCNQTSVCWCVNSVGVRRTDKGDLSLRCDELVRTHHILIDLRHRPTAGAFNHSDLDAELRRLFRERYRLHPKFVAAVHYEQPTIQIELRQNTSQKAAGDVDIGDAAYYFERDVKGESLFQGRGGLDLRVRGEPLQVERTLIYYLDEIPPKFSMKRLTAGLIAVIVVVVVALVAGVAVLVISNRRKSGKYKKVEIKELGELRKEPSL
Description: flow cytometry on CHO-K1/monkey Trop2 cells (second run). Here is the method: CHO-K1/monkey Trop2 cells (Chempartner, Shanghai, China) and CHO-K1 blast cells were each digested with 3 mL of TrypLE, and the digestion was stopped with 7 mL of the corresponding medium. […] The cell solution was centrifuged, and the cells were washed once with PBS+0.5% BSA. […] The cells were washed once with PBS+0.5% BSA. The cells were incubated at 4° C. for 1 h in the dark with 100 μL of Alexa Fluor 488 goat anti-human IgG (Life technologies, #A-11013) diluted at 1:1000, and washed twice with PBS+0.5% BSA. The cells were resuspended in 200 μL of PBS+0.5% BSA. The suspension was centrifuged at 4° C. for 5 min at 2000 rpm and tested using a FACS verse flow cytometer or NovoCyte flow cytometer (ACEA Biosciences). All procedures were performed on ice.
On the technique in general: A flow cytometer gives signals particle by particle.

Experiment [2] concerns the target T2, mouse Trop2-his protein (Sino Biological, #50922-M08H) (mouse, UniProt Q8BGV3 25-270).
T2 construct: bought protein; also called mouse Trop2 protein; not shown: his tag
T2 sequence (looked up): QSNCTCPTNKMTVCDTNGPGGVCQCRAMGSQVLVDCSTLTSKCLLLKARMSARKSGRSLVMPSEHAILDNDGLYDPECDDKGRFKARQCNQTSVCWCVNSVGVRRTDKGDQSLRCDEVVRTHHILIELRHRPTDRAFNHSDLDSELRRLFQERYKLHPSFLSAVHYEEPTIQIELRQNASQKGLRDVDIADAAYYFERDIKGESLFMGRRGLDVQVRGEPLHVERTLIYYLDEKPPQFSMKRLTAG
Description: ELISA, plate coated with mouse Trop2-his protein. How it is done: An ELISA plate was coated with 100 μL of 1 μg/mL mouse Trop2-his protein (Sino Biological, #50922-M08H) in PBS at 4° C. overnight. The plate was blocked with 200 μL of PBST (PBS+0.05% tween 20)+2% BSA at 37° C. for 1 h. The plate was washed 4 times with PBST. 100 μL of Trop2 antibody diluted in a gradient (5-fold dilution, starting concentration: 33.33 nM) was added to the ELISA plate and the plate was incubated at 37° C. for 1 h. The plate was washed 4 times with PBST. 100 μL of anti-human IgG (H+L)-HRP (Sigma, #A8667) diluted in 1:4000 was added and the plate was incubated at 37° C. for 1 h. The plate was washed 4 times with PBST. 100 μL of TMB substrate (Invitrogen, #88-7025-88) was added and the plate was incubated at room temperature for 5 min, and then 50 μL of stop buffer (BBI life sciences, #E661006-0200) was added to stop the reaction. The OD450 nm reading was recorded using a microplate reader (Perkin Elmer, EnSpire).
On the technique in general: ELISA stands for enzyme-linked immunosorbent assay.

B1: PR001165 (antibody, human IgG1, kappa, V domains shown)
VH: QVQLVESGGGVVQPGRSLRLSCEASGFTFSHYGMHWVRQAPGKGLEWVAVIWYDGIKTYYVESVKGRFTISRDNSKNTLNLQMNRLRAEDTAVYYCARDGGFGESNYYGLDVWGQGTTVTVSS
VL: DIQLTQSPSFLSASVGDRVTITCRASQGISSYLGWYQQKPGKAPKLLIYIASTLQSGVPSRFSGSGSGTEFTLTISSLQPEDFATYYCQQLNSYPYTFGQGTKLEIKR
notes: fully human IgG1/kappa; also called antibody No. (26)
As a reminder, the EC50 is the midpoint of the concentration-response curve. Take B1: the midpoint of the response in experiment [1], the EC50, lay at 1.8 nM.

B2: comparative example 2 antibody Tab (hRS7) (antibody, human IgG1, kappa, V domains shown)
VH: QVQLQQSGSELKKPGASVKVSCKASGYTFTNYGMNWVKQAPGQGLKWMGWINTYTGEPTYTDDFKGRFAFSLDTSVSTAYLQISSLKADDTAVYFCARGGFGSSYWYFDVWGQGSLVTVSS
VL: DIQLTQSPSSLSASVGDRVSITCKASQDVSIAVAWYQQKPGKAPKLLIYSASYRYTGVPDRFSGSGSGTDFTLTISSLQPEDFAVYYCQQHYITPLTFGAGTKVEIKR
notes: prepared on the basis of sacituzumab govitecan (ChemPartner, #T07-001); naked antibody
With B2, the binding result in experiment [2] is “no binding (tested: 33.33 nM (starting concentration))”. The EC50 in experiment [1] worked out at 1.3 nM.
